# Test results: the RNAGym collection of RNA variant scans (doi:10.1073/pnas.2313332121)
# B1: TPR t1 (parent)
# chain: GACCAAUCUGCCCUCAGAGCUCGAGAACAUCUUCGGAUGCAGAGGAGGCAGGCUUCGGUGGCGCGAUAGCGCCAACGUCCUCAACCUCCAAUGCAUCCCACCACAUGAUGAUGCCUGAAGAGCCUUGGUUUUUUG
# Variants of: B1
# Experiment: polymerase ribozyme fitness, log enrichment relative to wild type (log ratio); higher = more active; in vitro selection for triplet polymerase activity
# How it was run: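 Input and output libraries were sequenced on Illumina after a single in vitro selection round, run in triplicate on PCR-built, transcribed mutant libraries of each subunit of a heterodimeric triplet polymerase ribozyme. Selection annealed libraries to a biotinylated primer, the partner subunit and triplets, incubated them frozen at −7 °C, then gel-excised extended constructs for streptavidin-bead capture and RT-PCR. Genotypes with ≥10 input reads and ≥1 read per output were kept. Fitness is the logarithm, taken in base 2, of genotype enrichment divided by wild-type enrichment, using inverse-variance-weighted replicate averages.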
row,Variant,polymerase ribozyme fitness (log ratio)
1,G63A C102U U133G,-2.77
2,C62U C115U,-1.22
3,C62U A66G A100U,-2.66
4,C62G G113C,-4.48
5,C62U G117U,-2.6
6,C62U G117A,-1.28
7,C62A U78C A121C,0.55
8,C62G U78G C88G,-3.52
9,G63U A111U,-4.61
10,A66C U133A,-0.805
11,C64U C104G U109A,-6.28
12,C62U C82A,-1.44
13,C62U C114A,-1.35
14,C64G A111G,-5.39
15,G61U U81A C82U A119G G122U U125A U129C,-1.8
16,A66U G77A,-0.981
17,G61U U129C,-0.253
18,G61U U129A,-1.21
19,G63C C124A,0.234
20,G63C G77C U129C,-3.13
21,G63C G117A,-1.45
22,C62G A100C,-3.47
23,C62A U87A A100C C115A,-2.71
24,G63A A119G G127U,0.478

row,Variant,polymerase ribozyme fitness (log ratio)
1,C62U A66U C73G C104U U112C,-1.37
2,G63C C86A A118G,-2.3
3,G63C U87A U130C G135U,-1.49
4,G63C C97A G120C U126A,-6.28
5,C64U C88A,-0.544
6,C64U C88U,-0.605
7,C62G A90U U112A C115G C124U U133C,-5.24
8,C62A G117C U133A,-5.95
9,G61U U78C U116A,-2.17
10,C62G C115U G122U,-5.8
11,C62G C80U,-2.03
12,C62A G120A U133A,-0.165
13,C62A C82A,-0.246
14,A66C U87G A118U U132A,-0.678
15,C62A G135C,-0.579
16,C62A G135U,-1.52
17,C62A A91G,-2.78
18,G63A U112A G122C,-1.55
19,G61U U87C,0.519
20,G63U C89U A90G U112A C123G,0.558
21,G63A G93U G110A,-4.5
22,C62A U129A,-2.21
23,G63C C114A,-2.44
24,G63C C114U,-2.19

row,Variant,polymerase ribozyme fitness (log ratio)
1,C62U U116C,-1.06
2,C64U C73U,0.562
3,G63U C114A U125A,-4.22
4,G65C C114G,-6.28
5,C62U U81G A83U C89U G117U,-5.98
6,G63U G128U,-2.6
7,G63A U78C A95G,-0.717
8,C64U A118G U129G,-1.07
9,G63U G135U,-2.37
10,C64U A66U,-0.148
11,A66G G117C C124U U132A,-6.03
12,G65C G69U C114G G117C C124U G128C,-5.15
13,C62A U96G G113C C123G U133A,-3.2
14,G63A A119U,-1.29
15,G63A C72G C104G G120A G122U,-6.38
16,C62U G63C,-2.14
17,C62A U112A C123G,-1.31
18,C64U A83U,0.866
19,C62A C82U A91G C101G C123U G128U,-3.86
20,C62U C85A,-2.09
21,C64U C104A,-1.31
22,G63A U78G,-2.6
23,G63A U78C,-0.735
24,G63A A121C,0.832

row,Variant,polymerase ribozyme fitness (log ratio)
1,G63U C79G,-3.17
2,G63A C124G,0.684
3,G63A C124A,0.45
4,G63U U133G,-1.94
5,C62U G71C U131G,-0.416
6,C62U C97G A121U,-2.46
7,C62A C98U,-2.2
8,C64U C79U C85A A105G,-5.05
9,G63C A121C,0.84
10,G63C A121G,0.727
11,A66G C124G,1.19
12,G63C A111U,-3.26
13,C62U C104A,-1.29
14,C62A G127C,-1.29
15,C62A G127A,-2.22
16,G63A U87A,-1.03
17,C64U G117U,-1.28
18,C62G G117U,-3.34
19,C62G G117C,-5.09
20,A68G C80A,-6.54
21,A66G U96C A118U,-1.1
22,A68G C97A,-7.14
23,C64U C73U G117C,-3.17
24,G63U A74U,-4.43

row,Variant,polymerase ribozyme fitness (log ratio)
1,C64A C89A G117C G135U,-5.9
2,C62A U130G,-1.46
3,G63C U81G G120A,-3.19
4,C62G C123A,-1.01
5,G63U G120C,0.0622
6,C64U U109A,-4.01
7,C64U C104A G120A,-0.809
8,G63A C79A G93U,-4.19
9,C64U C124G,1.78
10,C64G U81G C101A G113A,-6.96
11,C62G A95G U132C,-1.55
12,G63U C123U,-0.374
13,A66G C101A C104A U112A C114U,-5.6
14,C62U C70A C94G,-3.73
15,C62G C115G U125A,-3.31
16,G63C U132A,-0.875
17,C64U U96C U132A,-0.407
18,G63C G93A,-1.12
19,G63C C104U,-0.59
20,C64A A66C C104A,-6.61
21,C64G U78C,-6.9
22,C62U C101G,-1.35
23,C62U C101A,-0.746
24,G63A C89A C115G,-4.92

row,Variant,polymerase ribozyme fitness (log ratio)
1,C62U A95G U96C,-1.53
2,G63A U112A U125A,-1.17
3,C64U U81A,-0.925
4,C62U U133A,-0.403
5,G63A C97A,-6.64
6,G63U C99U,-4.73
7,G63U G77U,-3.54
8,A66U U78C U87A A111U,-4.73
9,A66U C115A,-1.05
10,A68G C73G C82U,-5.21
11,G63U C88U,-2.31
12,C64U C80U,0.0248
13,C64U U87A U109C,-5.61
14,C64U C82U,-2.09
15,G63U G93A,-1.31
16,A66U G93A A121G,0.349
17,G63A C104A U132A G135U,-3.28
18,G63A C102A,-3.54
19,C62U U78C C82G A84C G93A C123U U129G,-1.05
20,G63U C73A A84U C86U A100G A111C,-6.77
21,G63A C85A C115U,-4.85
22,C62U C98G G117C G128A U133C,-5.87
23,G63A C82A,-2.53
24,G63U C114A G122U,-3.44

row,Variant,polymerase ribozyme fitness (log ratio)
1,C62A G128A,-2.62
2,C62A C79U,-0.345
3,C62A C79A,-3.89
4,C62A C101G C104U,-2.15
5,C62A U130G U133A,-1.17
6,C64G U81A G120C,-6.58
7,C62A A121U,1.32
8,A66U G69U C88G C99A A119G,-5.79
9,G63U C86G A90U C104A G110U,-6.48
10,G63U U78G U81A A118U U129C,-4.83
11,C62U A84G C101A C123U,-1.03
12,C62A C101G,-2.98
13,C62A C86A,-2.26
14,C62G U92A,-5.63
15,C62G U78A U106A,-1.75
16,A66C U92A,-6.51
17,G63A C123U G128C,-1.87
18,G65A U87G,-5.9
19,C62U U106G A121U G122U,-1.15
20,U67G,-7.14
21,U67C,-2.8
22,U67A,-5.73
23,C62A U126G,-2.4
